# Assay results from paper PMC11009304.
# Legend:
# [1] = biological target: hPIV3 L–P polymerase complex (L–P4) (human parainfluenza virus type 3 (hPIV3)) (UniProt P12577); test: SEC-MALS; purified L–P complex on an XBridge Protein BEH SEC column (200 Å) with a DAWN MALS detector, 0.5 ml/min, buffer B; bovine serum albumin as control
# [2] = biological target: hPIV3 L–P polymerase complex (L–P4) (human parainfluenza virus type 3 (hPIV3)) (UniProt P12577); test: SEC; analytical SEC of the purified L–P complex, Superdex 200 Increase 5/150 GL, buffer B (20 mM Tris-HCl pH 7.5, 300 mM NaCl, 1% glycerol, 6 mM MgSO4, 1 mM DTT), calibrated with standard markers
# [3] = biological target: human parainfluenza virus type 3 (hPIV3) phosphoprotein (P) (human parainfluenza virus type 3 (hPIV3)) (UniProt P06162); test: cryo-EM structure
Substance,stoichiometry N [1],stoichiometry N [2],stoichiometry N [3]
hPIV3 L–P polymerase complex (L–P4) (from UniProt P12577;P06162),2,2,–
human parainfluenza virus type 3 (hPIV3) phosphoprotein (P) (from UniProt P06162 1-604) (natural protein),–,–,4
